Laboratory results: patent US20090297438A1 (published 2009)
Residue numbers refer to the chain shown, from its start.

Tests used:
[1] = target: T1, human prostate specific membrane antigen (PSMA) on LNCaP prostate cancer cells (human, UniProt Q04609 1-750); assay: flow cytometry on LNCaP cells, FITC-labeled anti-human IgG detection
T1 construct: whole, on cells; also called PSMA-expressing LNCaP cells
Protocol: The human PSMA-expressing prostate cancer cell line LNCaP was used to determine the specificity of anti-PSMA human monoclonal antibodies by flow cytometry. Binding of the 2F5, 2A10, and 2C6 anti-PSMA human monoclonal antibodies was assessed by incubating the LNCaP cells with the anti-PSMA human monoclonal antibodies at different concentrations. The cells were washed and binding was detected with a FITC-labeled anti-human IgG Ab. Flow cytometric analyses were performed using a FACScan flow cytometry (Becton Dickinson, San Jose, Calif.). The human anti-PSMA monoclonal antibody 7F12 (as described in PCT Publication WO 03/064606) was used as a positive control and a non-PSMA specific isotype control antibody was used as a negative control. The results are depicted in FIG. 9. The anti-PSMA human monoclonal antibodies 2F5, 2A10, and 2C6 bound specifically to the PSMA-expressing LNCaP cells.

[2] = target: T2, PSMA immunopurified from LNCaP cells (human, UniProt Q04609 1-750); assay: ELISA on PSMA immunopurified from LNCaP cells, HRP goat anti-human IgG (kappa chain-specific) detection
T2 construct: also called purified PSMA; immunopurified PSMA
Protocol: A comparison of anti-PSMA antibodies on binding to immunopurified PSMA was performed by standard ELISA to examine the specificity of binding for PSMA.
PSMA was immunopurified from LNCaP cells and tested for binding against the anti-PSMA human monoclonal antibodies 1C3, 2A10, 2F5, and 2C6. Standard ELISA procedures were performed. The anti-PSMA human monoclonal antibodies were added at a concentration of 5 μg/ml and titrated down at 1:2 serial dilutions. Goat-anti-human IgG (kappa chain-specific) polyclonal antibody conjugated with horseradish peroxidase (HRP) was used as secondary antibody. The human anti-PSMA monoclonal antibody 7F12 was used as a positive control and a blank was used as a negative control. The anti-PSMA human monoclonal antibodies 2A10 and 2F5 bound with high specificity to PSMA.

[3] = target: T1, human prostate specific membrane …; assay: cell-based or functional assay
[4] = target: T1, human prostate specific membrane …; assay: radioligand competition on LNCaP cells: unlabeled antibody varied against a fixed concentration of 125I-2A10
Protocol: (§1) LNCaP cells were obtained from ATCC(CRL-1740) and grown in RPMI media containing 10% fetal bovine serum (FBS). The cells were trypsinized and washed once in Tris based binding buffer (24 mM Tris pH 7.2, 137 mM NaCl, 2.7 mM KCl, 2 mM Glucose, 1 mM CaCl₂, IMM MgCl₂, 0.1% BSA) and the cells were adjusted to 2×10⁶ cells/ml in binding buffer. Millipore plates (MAFB NOB) were coated with 1% nonfat dry milk in water and stored a 4° C. overnight. The plates were washed three times with 0.2 ml of binding buffer. Twenty-five microliters of buffer alone was added to the wells (non-specific binding). A fixed concentration of ¹²⁵I-anti-PSMA antibody was added to all wells in a volume of 25 μl. Varying concentrations of unlabeled antibody was added to wells in a volume of 25 μl and 25 μl of LNCaP cells (2×10⁶ cells/ml) in binding buffer were added to all wells. The plates were incubated for 2 hours at 200 RPM on a shaker at 4° C. At the completion of the incubation the Millipore plates were washed three times with 0.2 ml of cold wash buffer (24 mM Tris pH 7.2, 500mM NaCl, 2 mM KCl, 2 mM Glucose, 1 mM CaCl₂, 1 mM MgCl₂, 0.1% BSA). The filters were removed and counted in a gamma counter. Evaluation of equilibrium binding was performed using single site binding parameters with the Prism software (San Diego, Calif.). An isotype control antibody was used as a negative control. […]

[5] = target: T1, human prostate specific membrane …; assay: radioligand competition on LNCaP cells: unlabeled antibody varied against a fixed concentration of 125I-7F12
Protocol: as §1

[6] = target: T1, human prostate specific membrane …; assay: Scatchard analysis, 125I-labelled antibody on LNCaP cells
Protocol: The binding affinity of the 2A10 antibody for the PSMA-expressing prostate cancer LNCaP cell line was tested using a Scatchard analysis.
LNCaP cells were obtained from ATCC(CRL-1740) and grown in RPMI media containing 10% fetal bovine serum (FBS). The cells were trypsinized and washed once in Tris based binding buffer (24 mM Tris pH 7.2, 137 mM NaCl, 2.7 mM KCl, 2mM Glucose, 1 mM CaCl₂, 1 mM MgCl₂, 0.1% BSA) and the cells were adjusted to 2×10⁶ cells/ml in binding buffer. Millipore plates (MAFB NOB) were coated with 1% nonfat dry milk in water and stored a 4° C. overnight. The plates were washed three times with 0.2 ml of binding buffer. Fifty microliters of buffer alone was added to the maximum binding wells (total binding). Twenty-five microliters of buffer alone was added to the control wells (non-specific binding). Varying concentration of ¹²⁵I-anti-PSMA antibody was added to all wells in a volume of 25 μl . Varying concentrations of unlabeled antibody at 100 fold excess was added in a volume of 25 μl to control wells and 25 μl of LNCaP cells (2×10⁶ cells/ml) in binding buffer were added to all wells. The plates were incubated for 2 hours at 200 RPM on a shaker at 4° C. […] The filters were removed and counted in a gamma counter. […]

T1 sequence (Q04609 whole entry): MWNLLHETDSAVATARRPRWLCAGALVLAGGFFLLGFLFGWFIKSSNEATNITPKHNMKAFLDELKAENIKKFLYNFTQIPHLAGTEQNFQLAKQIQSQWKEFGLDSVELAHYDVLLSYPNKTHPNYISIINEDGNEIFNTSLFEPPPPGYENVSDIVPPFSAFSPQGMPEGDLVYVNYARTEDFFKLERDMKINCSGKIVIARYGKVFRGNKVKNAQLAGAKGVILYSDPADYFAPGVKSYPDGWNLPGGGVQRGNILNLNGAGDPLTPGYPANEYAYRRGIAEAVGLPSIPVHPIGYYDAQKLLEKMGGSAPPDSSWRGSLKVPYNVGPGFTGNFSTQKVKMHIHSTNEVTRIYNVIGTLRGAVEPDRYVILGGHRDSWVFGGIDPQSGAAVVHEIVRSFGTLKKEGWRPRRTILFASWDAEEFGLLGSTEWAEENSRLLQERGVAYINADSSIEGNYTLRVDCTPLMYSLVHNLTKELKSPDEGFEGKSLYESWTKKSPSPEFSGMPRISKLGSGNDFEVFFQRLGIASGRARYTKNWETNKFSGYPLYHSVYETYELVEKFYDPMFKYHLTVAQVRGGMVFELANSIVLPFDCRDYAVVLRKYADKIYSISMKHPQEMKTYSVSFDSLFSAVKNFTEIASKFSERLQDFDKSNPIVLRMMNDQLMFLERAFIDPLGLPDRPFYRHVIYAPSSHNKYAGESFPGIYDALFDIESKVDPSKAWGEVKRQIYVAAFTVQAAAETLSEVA
T2 sequence (Q04609 whole entry): as above

B1: anti-PSMA human monoclonal antibody 2C6 (antibody, V domains shown)
VH: EVQLVQSGSEVKKPGESLKISCKGSGYSFTNYWIGWVRQMPGKGLEWMGIIYPGDSDTRYSPSFQGQVTISADKSISTAYLQWSSLKASDTAMYYCASPGYTSSWTSFDYWGQGTLVTVSS
VL: EIVLTQSPATLSLSPGERATLSCRASQSVSSYLAWYQQKPGQAPRLLIYDASNRATGIPARFSGSGSGTDFTLTISSLEPEDFAVYYCQQRSNWPLFTFGPGTKVDIK
binding result [1]: binds
binding result [2]: binds

B2: anti-PSMA HuMAb antibody 2A10 conjugated to a toxin (antibody, V domains shown)
VH: EVQLVQSGAEVKKPGESLKISCKGSGYSFTSNWIGWVRQMPGKGLEWMGIIYPGDSDTRYSPSFQGQVTISADKSISTAYLQWSSLKASDTAMYYCARQTGFLWSSDLWGRGTLVTVSS
VL: AIQLTQSPSSLSASVGDRVTITCRASQDISSALAWYQQKPGKAPKLLIYDASSLESGVPSRFSGYGSGTDFTLTINSLQPEDFATYYCQQFNSYPLTFGGGTKVEIK
EC50, 3H-thymidine incorporation cell proliferation assay, continuous wash [3]: 0.0643 nM
EC50, 3H-thymidine incorporation cell proliferation assay, three-hour wash [3]: 0.157 nM

B3: anti-PSMA human monoclonal antibody 2F5 (antibody, V domains shown)
VH: B2 VH with S84N, S106F
VL: AIQLTQSPSSLSASVGDRVTITCRASQDISSALAWYQQKPGKAPKLLIYDASSLESGVPSRFSGSGSGTDFTLTISSLQPEDFATYYCQQFNSYPLTFGGGTKVEIKI
EC50 (read off the curve) [1]: ~0.8 µg/mL
EC50 (read off the curve) [2]: ~40 ng/mL

B4: anti-PSMA human monoclonal antibody 2A10 (antibody, V domains shown)
VH: B2 VH
VL: B2 VL
notes: also called anti-PSMA HuMAb 2A10
EC50 (read off the curve) [1]: ~0.7 µg/mL
IC50 (read off the curve) [4]: 1 to 2 nM
EC50 (read off the curve) [2]: ~40 ng/mL
IC50 (read off the curve) [5]: ~1 nM
Kd [6]: ~0.8 nM

B5: anti-PSMA human monoclonal antibody 1C3 (antibody, V domains shown)
VH: QVQLVESGGGVVQPGRSLRLSCAASGFTFSSYAMHWVRQAPGKGLEWVAVISYDGNNKYYADSVKGRFTISRDNSKNTLYLQMNSLRAEDTAVYYCARAVPWGSRYYYYGMDVWGQGTTVTVSS
VL: B2 VL with D28G, P40S, Y49F, Y65S, N76S
binding result [2]: binds
